Test results from US20090324700A1, “METHODS AND COMPOSITIONS FOR THE INHIBITION OF CATHEPSINS” (priority 2003, published 2009).
Several values for one entry are separate records, joined by “and”; a condition that tells them apart may be missing. Equal entries are not always repeated.

Experiments:
cathepsin B = molecular target: T1, cathepsin B (Homo sapiens, UniProt P07858); assay: Protease specificity of Spi2A: cathepsin B; assay type: biochemical; conditions: protease 20 nM, Spi2A 200 nM, 1 h at 37° C; FIG. 6B
T1 construct: purchased Calbiochem or Athens Research and Technology
Method: Protease specificity of Spi2A. RelA^−/− MEFs were transduced with retrovirus encoding Spi2A with a C-terminal 3×FLAG epitope tag and Spi2A-3×FLAG purified using a method described previously (Cooley et al., 1998). Briefly, cells (3×10^9) were lysed and Spi2A-3×FLAG (75 μg) purified by batch Q-Fast Flow ion-exchange chromatography (Pharmacia Biotech) after elution at 160-220 mM NaCl followed by anti-FLAG antibody columns, performed according to manufacturer's instructions (Sigma-Aldrich). Spi2A-3×FLAG was dialysed into PBS and stored as aliquots at −80° C. until needed.
Proteases were purchases from the manufacturers (Calbiochem or Athens Research and Technology) except granzymes A and B which were purified as described (Hanna et al., 1993) and cathespin V and K, which were purified as described (Bromme et al., 1999; Linnevers et al., 1997). Proteases (20 nM) were incubated in the appropriate assay buffer with Spi2A at 200 nM (at least 10-fold excess of inhibitor to maintain pseudo-first order conditions) for 1 h at 37° C. Control samples included only the enzyme, without the inhibitor. At the end of 1 h protease activity was assayed. […] Substrate hydrolysis was measured in a fluorescence microtiter plate reader (Spectramax Gemini XS, Molecular Devices). Percentage inhibition was calculated from the residual enzyme activity compared to no Spi2A controls. […]

[1] = tested on: caspase-8, 9 and 3, and Bid; assay: Death effector assays: caspase and Bid activation (western blots, enzyme assays), RelA^−/− MEFs; assay type: cell-based, mouse; conditions: TNF-α 0.2 ng/ml, CHX 0.1 μg/ml; FIG. 5A, 5B
Method: Death effector assays. Death effector pathways were induced in […] MEFs by treatment TNF-α (0.2 ng/ml) and CHX (0.1 μg/ml). Assays for executioner proteases (caspases and cathepsin B) were performed on crude cytoplasmic extracts (Stegh et al., 2000). Briefly, MEFs (10^6) were lysed in 10 mM Tris-Cl, pH 7.5, 100 mM NaCl, 1 mM EDTA, 0.01% Triton X-100 (50 μl) for 30 min on ice then centrifuged at 15,000 g for 30 min at 4° C. and the supernatant recovered. Protein concentration was determined by Lowry assay (DC-protein assay kit, Biorad). […]
Colorimetric assays for capases were performed in reaction buffer (50 mM HEPES, pH 7.4, 100 mM NaCl, 10 mM DTT, 1 mM EDTA, 10% glycerol, 0.1% CHAPS) at 37° C. on crude cytoplasmic extracts using p-Nitoaniline (pNA)-labeled substrates (Calbiochem) specific for caspases 3 and 7 (Ac-DEVD-pNA), caspase 8 (Ac-IETD-pNA), caspase 9 (Ac-LEHD-pNA), each at 0.2 mM. Specific activity was determined by subtracting the apparent activity detected after 1 h pre-incubation of extract with the pan-caspase inhibitor Z-VAD.fmk at 50 μM (ICN Biomedicals Inc), then normalizing for the amount of protein. […] Specific activity was determined by subtracting the apparent activity detected after 30 min pre-incubation of extract at 37° C. with the cathespin B inhibitor CA-074 Me at 30 μM (Peptide Institute) then normalizing for the amount of protein.

NIH3T3 cells = assay: Survival of NIH3T3 cells incubated with Naphazarin (ROS); assay type: cell-based; conditions: 16 hours; three clones vs GFP controls; FIG. 12B
Method: FIGS. 12A-B: Spi2A inhibits the lysosomal pathway of death in the absence of caspase activity. FIG. 12A: Cathepsin B activity in crude cytoplasmic extracts from cloned GFP or Spi2A-A NIH3T3 cells before (time=00 h) or after (time=8 h) treatment with TNF-α+Z-VAD.fmk (50 μM). FIG. 12B: Spi2A protects NIH3T3 cells from death due to reactive oxygen species. NIH3T3 fibroblasts from independent clones harboring control retrovirus (GFP clones #, 18, 12 and 2) or one expressing Spi2A (Spi2A clones# 6, 4 and 2) were incubated with Naphazarin—a known initiator of Reactive Oxygen Species (ROS). After 16 hours, the percentage of live cells was determined by flow cytometry as described in Liu et al. (2003).
Spi2A protects NIH3T3 cells from death due to reactive oxygen species. NIH3T3 fibroblasts from independent clones harboring control retrovirus (GFP clones #, 18, 12 and 2) or one expressing Spi2A (Spi2A clones# 6, 4 and 2) were incubated with Naphazarin—a known initiator of Reactive Oxygen Species (ROS). After 16 hours, the percentage of live cells was determined by flow cytometry as described in Liu et al., 2003.

[2] = tested on: anti-LCMV memory CD8 cells; conditions: mouse, in vivo
Spi2A mRNA = conditions: mouse, in vivo
[3] = tested on: CD8 cells and B lymphocytes in PBLs; assay: Generation of bone marrow chimeras transduced with retrovirus: engraftment of CD8 cells and B lymphocytes in PBLs; assay type: in vivo, mouse; conditions: 8 weeks after bone-marrow transfer, before infection; vs GFP mice

B1: Spi2A: murine Spi2A polypeptide, SEQ ID NO:2; purified as C-terminal 3×FLAG protein or expressed from MIGR1 retrovirus in cells and bone-marrow chimeras (protein, listed as Mus musculus)
chain: MAGVSPAVFGCPDVTLGRNTAVREVQENVTSVDSLTLVSSNTDFAFSLYRKLVLKNPDENVVFSPFSICTALALLSLGAKSNTLKEILEGLKFNLTETPEPDIHQGFRYLLDLLSQPGNQVQISTGSALFIEKHLQILAEFKEKARALYQAEAFTADFQQPLKATKLINDYVSNHTQGKIKELISGLKESTLMVLVNYIYFKGKWKNPFDPNDTFKSEFYLDEKRSVIVSMMKTGYLTTPYFRDEELSCTVVELKYTGNASAMFILPDQGRMQQVEASLQPETLRKWKNSLKPRMIHELRLPKFSISTDYSLEHILPELGIREVFSTHADLSAITGTKDLRVSQVVHKAVLDVAEKGTEAAAATGMAGVGCCAVFDFLEIFFNRPFLMIISDTKAHIALFMAKVTNPERSTNFPNGEGASSQRLESKRLCFGDPLCLIGQ
modifications: C-terminal 3xFLAG tag
notes: purified as C-terminal 3×FLAG protein or expressed from MIGR1 retrovirus in cells and bone-marrow chimeras
- Inhibition of protease by Spi2A (percentage inhibition) (cathepsin B): extended to all of the lysosomal, papain-like proteases that were examined
- Activation of apical and executioner caspases and Bid [1]: suppressed
- Survival (percentage of live cells) with Naphazarin (NIH3T3 cells): significantly increased survival
- Number of anti-LCMV CD8 cells per spleen GFP^− [2]: 5.07 ± 0.68 (n = 3) ×10^−5 and 2.79 ± 0.12 (n = 6) ×10^−5
- Percentage and absolute number of anti-LCMV memory CD8 cells (IFN-γ^+ CD8^+) in the spleen [2]: increased
- Spi2A mRNA in GFP^+ CD8^+ spleen cells (Spi2A mRNA): significant increase
- Percentage of CD8 cells in transduced (GFP-positive) PBLs [3]: no difference
